Each protein was assayed against recombinant von Willebrand Factor precursor, P04275.

Row | Protein | processing of rvWF precursor (Western blot)
1 | Furin deletion mutant Helix 10 (protein) QKVFTNTWAVRIPGGPAVANSVARKHGFLNLGQIFGDYYHFWHRGVTKRSLSPHRPRHSRLQREPQVQWLEQQVAKRRTKRDVYQEPTDPKFPQQWYLSGVTQRDLNVKAAWAQGYTGHGIVVSILDDGIEKNHPDLAGNYDPGASFDVNDQDPDPQPRYTQMNDNRHGTRCAGEVAAVANNGVCGVGVAYNARIGGVRMLDGEVTDAVEARSLGLNPNHIHIYSASWGPEDDGKTVDGPARLAEEAFFRGVSQGRGGLGSIFVWASGNGGREHDSCNCDGYTNSIYTLSISSATQFGNVPWYSEACSSTLATTYSSGNQNEKQIVTTDLRQKCTESHTGTSASAPLAAGIIALTLEANKNLTWRDMQHLVVQTSKPAHLNANDWATNGVGRKVSHSYGYGLLDAGAMVALAQNWTTVAPQRKCIIDILTEPKDIGKRLEVRKTVTACLGEPNHITRLEHAQARLTLSYNRRGDLAIHLVSPMGTRSTLLAARPHDYSADGFNDWAFMTTHSWDEDPSGEWVLEIENTSEANNYGTLTKFTLVLYGTAPEGAEMWHQAMEVHLPEVVAGLSCAFIVLVFVTVFLVLQLRSGFSFRGVKVYTMDRGLISYKGLPPEAWQEECPSDSEEDEGRGERTAFIKDQSAL | the R683A, Helix 10, Loop 10 and 578-711 furin constructs evidence proteolytic activity
2 | Furin deletion mutant Loop 10 (protein) QKVFTNTWAVRIPGGPAVANSVARKHGFLNLGQIFGDYYHFWHRGVTKRSLSPHRPRHSRLQREPQVQWLEQQVAKRRTKRDVYQEPTDPKFPQQWYLSGVTQRDLNVKAAWAQGYTGHGIVVSILDDGIEKNHPDLAGNYDPGASFDVNDQDPDPQPRYTQMNDNRHGTRCAGEVAAVANNGVCGVGVAYNARIGGVRMLDGEVTDAVEARSLGLNPNHIHIYSASWGPEDDGKTVDGPARLAEEAFFRGVSQGRGGLGSIFVWASGNGGREHDSCNCDGYTNSIYTLSISSATQFGNVPWYSEACSSTLATTYSSGNQNEKQIVTTDLRQKCTESHTGTSASAPLAAGIIALTLEANKNLTWRDMQHLVVQTSKPAHLNANDWATNGVGRKVSHSYGYGLLDAGAMVALAQNWTTVAPQRKCIIDILTEPKDIGKRLEVRKTVTACLGEPNHITRLEHAQARLTLSYNRRGDLAIHLVSPMGTRSTLLAARPHDYSADGFNDWAFMTTHSWDEDPSGEWVLEIENTSEANNYGTLTKFTLVLYGTAPEGGSPNSQPYDGHLPEVVAGLSCAFIVLVFVTVFLVLQLRSGFSFRGVKVYTMDRGLISYKGLPPEAWQEECPSDSEEDEGRGERTAFIKDQSAL | the R683A, Helix 10, Loop 10 and 578-711 furin constructs evidence proteolytic activity
3 | Furin deletion mutant 578-711 (protein) QKVFTNTWAVRIPGGPAVANSVARKHGFLNLGQIFGDYYHFWHRGVTKRSLSPHRPRHSRLQREPQVQWLEQQVAKRRTKRDVYQEPTDPKFPQQWYLSGVTQRDLNVKAAWAQGYTGHGIVVSILDDGIEKNHPDLAGNYDPGASFDVNDQDPDPQPRYTQMNDNRHGTRCAGEVAAVANNGVCGVGVAYNARIGGVRMLDGEVTDAVEARSLGLNPNHIHIYSASWGPEDDGKTVDGPARLAEEAFFRGVSQGRGGLGSIFVWASGNGGREHDSCNCDGYTNSIYTLSISSATQFGNVPWYSEACSSTLATTYSSGNQNEKQIVTTDLRQKCTESHTGTSASAPLAAGIIALTLEANKNLTWRDMQHLVVQTSKPAHLNANDWATNGVGRKVSHSYGYGLLDAGAMVALAQNWTTVAPQRKCIIDILTEPKDIGKRLEVRKTVTACLGEPNHITRLEHAQARLTLSYNRRGDLAIHLVSPMGTRSTLLAARPHDYSADGFNDWAFMTTHSWDEDPSGEWVLEIENTSEANNYGTLTKFTLVLYGTAPEGHLPEVVAGLSCAFIVLVFVTVFLVLQLRSGFSFRGVKVYTMDRGLISYKGLPPEAWQEECPSDSEEDEGRGERTAFIKDQSAL | the R683A, Helix 10, Loop 10 and 578-711 furin constructs evidence proteolytic activity

From patent publication US6596526
